Fewer inactive variants are shown than the library holds.
B1: TPR 5TU (parent)
chain: GGAUCUUCUCGAUCUAACAAAAAAGACAAAUCUGCCACAAAGCUUGAGAGCAUCUUCGGAUGCAGAGGCGGCAGCCUUCGGUGGCGCGAUAGCGCCAACGUUCUCAACUAUGACACGCAAAACGCGUGCUCCGUUGAAUGGAGUUUAUCAUG

Variants of: B1
Test: polymerase ribozyme fitness, log enrichment relative to wild type (log ratio); higher = more active; in vitro selection for triplet polymerase activity
Procedure, shortened: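 Input and output libraries were sequenced on Illumina after a single in vitro selection round, run in triplicate on PCR-built, transcribed mutant libraries of each subunit of a heterodimeric triplet polymerase ribozyme. Selection annealed libraries to a biotinylated primer, the partner subunit and triplets, incubated them frozen at −7 °C, then gel-excised extended constructs for streptavidin-bead capture and RT-PCR. Genotypes with ≥10 input reads and ≥1 read per output were kept. Fitness is the logarithm, taken in base 2, of genotype enrichment divided by wild-type enrichment, using inverse-variance-weighted replicate averages.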

| Variant | polymerase ribozyme fitness (log ratio) |
| --- | --- |
| C10U C93U | -4.06 |
| A17U C51U G83C A91U U139A G140A G141A U148C | ≤ -4.2 |
| A20G A41G C54U U56A C93G A120G U139G | -2.99 |
| C18A A39C G58C G84A U145G | -3.36 |
| C79U U134A | -4.05 |
| U56A U61A | -1.51 |
| A16G A30U U44A G81A C95U C125G | ≤ -4.2 |
| U109A U151A | ≤ -4.2 |
| A20C A22C A39G G71A C85A G94C | ≤ -4.2 |
| G50C G71A C95U G117C G143A | ≤ -4.2 |
| G25C | -2.52 |
| A52G A60U G71A A121U U135G U148A | -4.18 |
| A22U G50U C96G | 0.467 |
| G11U A47C G50U C57G A64U C76G | ≤ -4.2 |
| C14G C85G C103A | ≤ -4.2 |
| U53A G83A | -1.64 |
| U13A C76U C105G C114U | ≤ -4.2 |
| U56G G81A U104C U145C | -1.47 |
| U13C A16U G84A U109G | -1.88 |
| A37C C69G G70A C116A | -3.56 |
| A24C G46A C116G | -4.14 |
| U31G C38G U101G U139C U146G | -4.03 |
| A23G A52U | -3.51 |
| A40C C93A G143A | -3.22 |

| Variant | polymerase ribozyme fitness (log ratio) |
| --- | --- |
| A47C C51U C54U C72U G84U | -3.18 |
| A17U A40G G94C C132U | -4.03 |
| A41C U53A U135A | -1.07 |
| C99G A107C G143C | ≤ -4.2 |
| A40U G83C C96A G152A | -3.95 |
| A23G A49U A60G A119U A120U A122C | -3.98 |
| A28U C43A U109G G141C | ≤ -4.2 |
| A40C C85G C87U C93U U148C | ≤ -4.2 |
| A29U C103U | ≤ -4.2 |
| U33G C43U A49C U77G A91U U101A C105G | ≤ -4.2 |
| C54G C76A C93G C123U | ≤ -4.2 |
| A52G U56G G86A C95U A142C | ≤ -4.2 |
| C57G G59A G80U G92U C99A C131U U135A | -3.22 |
| C125A U148A | -3.93 |
| C36U C96U A142C | -2.88 |
| A40U G59C C132U U145G | -1.94 |
| G48U U134G | -2.34 |
| C10U C105A | -3.59 |
| G59C G92U C105A C125A C149U | ≤ -4.2 |
| A16U C38A C85A | -3.78 |
| A19C U56A U104A A119U | -0.197 |
| G48C G83U | -1.41 |
| A16U G25C C72G C76G C96U A107U A115G C129U | ≤ -4.2 |
| A16C A21U C69U G71A | -1.79 |

| Variant | polymerase ribozyme fitness (log ratio) |
| --- | --- |
| A20G A22C | -0.665 |
| C36A G84U U102A C103U U127C | ≤ -4.2 |
| A52C A66G C72A A97U C99A | ≤ -4.2 |
| C85A G141A | -1.85 |
| A40C A49G U55A G80A C85U G140C | ≤ -4.2 |
| C5A A20G A22C C35A U77G C87A A115C G124C | ≤ -4.2 |
| A49G C54U U109G | -2.26 |
| C14A G46C C75G C87A A89U U90G C96U U102G G140A | ≤ -4.2 |
| A23G A73U G81C | -4.17 |
| C18U G25C A26C C32G G50U G58C C75U A91G C114A | ≤ -4.2 |
| U6A A20C U31C C96A U127C | -1.86 |
| C14U C116G G128A C129G U135G | ≤ -4.2 |
| G50A C54U C85U G92U U148A | ≤ -4.2 |
| A24U U56A | 0.265 |
| G65A C96U G112C A115G U144A | ≤ -4.2 |
| C10G C75U | -3.87 |
| G143U | -1.84 |
| A91G C123G | -2.82 |
| A98U C118U U144G | 0.244 |
| U9A A16U U56A G84A C131U | ≤ -4.2 |
| U53G C63U G80C G81C G84U G100U | ≤ -4.2 |
| A41C G143A | -1.42 |
| U78G G88U | ≤ -4.2 |
| U9G A29G C85U A121U G128U | ≤ -4.2 |

| Variant | polymerase ribozyme fitness (log ratio) |
| --- | --- |
| A60G G88C A106U U134A G140C G143C | ≤ -4.2 |
| U6G C18G C36U C96G A98G | -2.92 |
| A16U U45C C123A | -2.97 |
| U55A C96A | -1.21 |
| C57U U101G | -0.262 |
| C51U C103A | -1.29 |
| A16U A22C C51U U55A G74A C99G C114A C131U | ≤ -4.2 |
| C8U C57U U61A G117A A121U U134C | -4.09 |
| U4G A12G A22U U53A C72G G100A U111G C125U | ≤ -4.2 |
| U56A U61G G65A C85A G86A A121U U127A | ≤ -4.2 |
| G46U G59A G74A G84C U104C G112C U134G U145A | ≤ -4.2 |
| A20C G94U G152C | -2.76 |
| G11C U13A A64U G74C C85U C96G U102C | ≤ -4.2 |
| A30C G42A C54U G58A U90G C93G C96U C125A U148A | ≤ -4.2 |
| G86A C105G A138U | ≤ -4.2 |
| A60C A91U | ≤ -4.2 |
| U45A G67A C79A A91U A121G | ≤ -4.2 |
| A17U U33G A52C | ≤ -4.2 |
| A30U A52C U82A U101A G128A G136U G141C | ≤ -4.2 |
| C5G U53A U56A G68C G94A C118U U148A A150C | ≤ -4.2 |
| C8A U31G A37G G42A G83A | ≤ -4.2 |
| C69G C96U A142C | -2.43 |
| C79G U134C U146C | -4.11 |
| G133U U135A U139G U144G A150U | -4.1 |

| Variant | polymerase ribozyme fitness (log ratio) |
| --- | --- |
| A21C G50C G74A C87G U109G | ≤ -4.2 |
| U33A U44G A107G A122G C132U | ≤ -4.2 |
| G86A C114A | -4.1 |
| A47C C51U C54U A73C A122U | ≤ -4.2 |
| U53G | -1.68 |
| A21C A49C A52C U53G G84U C95U G141A | ≤ -4.2 |
| C43G C57A A60U G141C | -4.18 |
| A66U C93U | ≤ -4.2 |
| U82A C95G C118U G126C | -2.5 |
| A21G G84C A113U | -4.09 |
| A60G G83A G133C | -1 |
| U6G A24U C79A G84U C85U G117U G141A | ≤ -4.2 |
| C76A A110U U139C G143U | ≤ -4.2 |
| C43A G83C U90G G140U | ≤ -4.2 |
| A16C C18G U45G U61G | ≤ -4.2 |
| C5A A21C C35U G74C G128U U139G | ≤ -4.2 |
| G70A C85U | -3.46 |
| A52U G92C | -2.01 |
| A47C G92A A107G | ≤ -4.2 |
| G65A G74C G140U A147G | ≤ -4.2 |
| C54A C96U A113G | -3.11 |
| U6C C96G C105U | -0.764 |
| C38G C96A C114U | -2.91 |
| C8U G141U | -2.76 |

| Variant | polymerase ribozyme fitness (log ratio) |
| --- | --- |
| A73U C96U G112A | ≤ -4.2 |
| C79U A89C | -3.38 |
| C72U A89G C95A | -1.39 |
| A3U G58A C96G | -1.09 |
| U56G C72U | -0.106 |
| A26U A73U G74U C96A | ≤ -4.2 |
| U56A G81A | -0.577 |
| C5U A41U G83A | -1.02 |
| C36U A37U A73G A91U C149U G152U | ≤ -4.2 |
| A29U A37U C72G C95U C114U G143U | ≤ -4.2 |
| A106U U135A A150U | -1.22 |
| A52G U55G G58A C95G U134A U139A | ≤ -4.2 |
| U9G A17G A52U C75G G84A C105U | ≤ -4.2 |
| G11U A16U A52C G58C G65A C79A G83U C93U C118A | ≤ -4.2 |
| A29U A39C A40U U45G U77G | ≤ -4.2 |
| G81C G84A A115C G133U C149U | ≤ -4.2 |
| A12C C54U A91U | ≤ -4.2 |
| G50U C95A C125G | -0.894 |
| A29C A37C A64G C87A C95G U146G | ≤ -4.2 |
| A26C C32G G34C U44A A107G C131U U139C U145C | ≤ -4.2 |
| A39C G68A A89G G128U A138G | ≤ -4.2 |
| C14U U53A U56A | -2.46 |
| G58A C95U | -0.535 |
| U55A A115U U127G U135A U145A | -1.32 |

| Variant | polymerase ribozyme fitness (log ratio) |
| --- | --- |
| A37C A52G | -0.00493 |
| A21U A29C A30C A39G U44A A49C U53A G68A C105U | ≤ -4.2 |
| U45A C93U | -3.15 |
| G68U C85G U139A U145G U146G | ≤ -4.2 |
| C57A G59A G84U A97U C118G | -3.12 |
| G81A G133U | -3.84 |
| C8A G42U G50A G74U C95U | ≤ -4.2 |
| C36G U130C | -3.89 |
| U90C G126U | -3.66 |
| A17C G141U | 1.61 |
| C14G A29G A60G G94C C99U C114U | ≤ -4.2 |
| A41U G117C | -0.836 |
| C69U C116U U135A G136U | -4.18 |
| A40U C57G A91U A138U | ≤ -4.2 |
| C14A A19U A21C A60G | -1.8 |
| G50C G59U C118U | -2.35 |
| A12C A37G G46C C96G A110G C116U U135G | ≤ -4.2 |
| A20U G59A G88A C95G U151A | ≤ -4.2 |
| A40U A60C C72U G84U | -2.77 |
| G62U U109C C116U C131U A147U | -1.94 |
| C43U U56A A66C C75A C85G | ≤ -4.2 |
| A24U G48A A49G G50A U55A C123A G136C | ≤ -4.2 |
| A22C A26U U31C A37C U56C A73C A91C | ≤ -4.2 |

Source: the RNAGym collection of RNA variant scans (doi:10.1073/pnas.2313332121)
